Consider 1 substance from PMC10695385.

The test has as its target SYD-2/Liprin-α N-terminal fragment (coiled-coils and IDR) (UniProt Q21049). Kind of test: GFP-trap pull-down, Coomassie gel. The following applies: reference: SAD-1-phosphorylated wild-type SAM; sites S896,S901,S904.

Turning to “SYD-2/Liprin-α SAM domains, 844-1139 (from UniProt Q21049) SAD-1-phosphorylated SAM(3A)”, the “binding against the reference” value is “stronger”.
